B1: KIR2DL5B*003 allele expressed on 3T3 cells (receptor)
chain: HEGGQDKPLLSAWPSAVVPRGGHVTLLCRSRLGFTIFSLYKEDGVPVPELYNKIFWKSILMGPVTPAHAGTYRCRGSHPRSPIEWSAPSNPLVIMVTGLFGKPSLSAQPGPTVRTGENVTLSCSSRSSFDMYHLSREGRAHEPRLPAVPSVNGTFQADFPLGPATHGGTYTCFGSLHDSPYEWSDPSDPLLVSVTGNSSSSSSSPTEPSSKTGIRRHLHILIGTSVAIILFIILFFFLLHCCCSNKKNAAVMDQEPAGDRTVNREDSDDQDPQEVTYAQLDHCVFTQTKITSPSQRPKTPPTDTTMYMELPNAKPRSLSPAHKHHSQALRGSSRETTALSQNRVASSHVPAAGI
B2: PVR-Ig fusion protein (Fc fusion, UniProt P15151 27-343, looked up)
chain: GDVVVQAPTQVPGFLGDSVTLPCYLQVPNMEVTHVSQLTWARHGESGSMAVFHQTQGPSYSESKRLEFVAARLGAELRNASLRMFGLRVEDEGNYTCLFVTFPQGSRSVDIWLRVLAKPQNTAEVQKVQLTGEPVPMARCVSTGGRPPAQITWHSDLGGMPNTSQVPGFLSGTVTVTSLWILVPSSQVDGKNVTCKVEHESFEKPQLLTVNLTVYYPPEVSISGYDNNWYLGQNEATLTCDARSNPEPTGYNWSTTMGPLPPFAVAQGAQLLIRPVDKPINTTLICNVTNALGARQAELTVQVKEGPPSEHSGISRN
notes: Bought (R&D Systems); also called PVR-Ig protein; not shown: Ig part, detected with anti-human IgG Fc
B3: CD112-Ig fusion protein (Fc fusion, UniProt Q92692 32-360, looked up)
chain: QDVRVQVLPEVRGQLGGTVELPCHLLPPVPGLYISLVTWQRPDAPANHQNVAAFHPKMGPSFPSPKPGSERLSFVSAKQSTGQDTEAELQDATLALHGLTVEDEGNYTCEFATFPKGSVRGMTWLRVIAKPKNQAEAQKVTFSQDPTTVALCISKEGRPPARISWLSSLDWEAKETQVSGTLAGTVTVTSRFTLVPSGRADGVTVTCKVEHESFEEPALIPVTLSVRYPPEVSISGYDDNWYLGRTDATLSCDVRSNPEPTGYDWSTTSGTFPTSAVAQGSQLVIHAVDSLFNTTFVCTVTNAVGMGRAEQVIFVRETPNTAGAGATGG
notes: Bought (R&D Systems); also called nectin-2; not shown: Ig part, detected with anti-human IgG Fc

Experiment [1] deals with B2. Kind of experiment: flow cytometry, PVR-Ig on 3T3 cells expressing KIR2DL5 alleles. As to the method:
(§1) FIG. 10A-E: Allelic polymorphism affected PVR binding of KIR2DL5. (A) Flow cytometric analysis of PVR-Ig or CD112-Ig (open) or control hIg (shaded) binding to KIR2DL5/3T3. (B) Flow cytometric analysis of PVR-Ig binding to KIR2DL5/3T3 in the presence of increasing concentrations of F8B30. (C) KIR2DL5 bound to different sites of PVR from other receptors. PVR-Ig protein was preincubated with indicated His-tagged protein and then stained KIR2DL5/3T3 cells. […] (D) Flow cytometric analysis of PVR-Ig (open) or control hIg (shaded) binding on 3T3 cells expressing WT, DO-deleted, or D2-deleted KIR2DL5. Parental 3T3 cells were used as a negative control. (E) Flow cytometric analysis of PVR-Ig or control hIg (shaded) binding on 3T3 cells expressing different KIR2DL5 alleles. In A-E, data are representative of 2 independent experiments.
(§2) Fusion protein cell binding assays. PVR-Ig, CD112-Ig, or hIgG (R&D Systems) was incubated with corresponding 3T3 cells on ice for 45 minutes, followed by incubation with APC- or PE-conjugated anti-human IgG Fc antibody (1:100; clone HP6017, BioLegend) on ice for 30 minutes. Cells were then acquired on an LSR II flow cytometer (BD Biosciences). In the anti-KIR2DL5 mAb blocking assay, KIR2DL5/3T3 cells were preincubated with a serial concentration of anti-KIR2DL5 mAb F8B30 or mIgG1 on ice for 30 minutes. […]
On the technique in general: In flow cytometry, cells or beads pass a laser one at a time.

Experiment [2] concerns the target T1, KIR2DL4 expressed on 3T3 cells (human, UniProt Q99706 22-377).
T1 construct: whole, on cells; also called KIR2DL4/3T3
Kind of experiment: flow cytometry, PVR-Ig titrated on KIR2DL4/3T3. As to the method:
Specifically, a cell-based binding assay was performed by incubating PVR-Ig fusion protein with KIR2DL5- or KIR2DL4-expressing 3T3 cells. Conversely, KIR2DL5 was selectively bound by PVR, but not by CD112 (also known as nectin-2), another ligand for TIGIT and DNAM-1 in the nectin/nectin-like family (FIG. 10A). Furthermore, anti-KIR2DL5 mAb F8B30 blocked KIR2DL5-PVR interaction (EC₅₀=0.095 μM) (FIG. 10B). The specificity of KIR2DL5 binding to PVR was also evidenced by an intercellular interaction assay, in which 3T3 cells expressing PVR interacted with 3T3 cells expressing KIR2DL5, but not with cells expressing KIR3DL3 (FIG. 18B), a newly identified inhibitory receptor of HHLA2 (Zang, 2022; Wei 2021; Bhatt 2021).
(§3) Fusion protein cell binding assays. PVR-Ig, CD112-Ig, or hIgG (R&D Systems) was incubated with corresponding 3T3 cells on ice for 45 minutes, followed by incubation with APC- or PE-conjugated anti-human IgG Fc antibody (1:100; clone HP6017, BioLegend) on ice for 30 minutes. Cells were then acquired on an LSR II flow cytometer (BD Biosciences). In the anti-KIR2DL5 mAb blocking assay, KIR2DL5/3T3 cells were preincubated with a serial concentration of anti-KIR2DL5 mAb F8B30 or mIgG1 on ice for 30 minutes. After washing, the cells were then incubated with 20 μg/mL PVR-Ig or hIgG on ice for 45 minutes, followed by incubation with APC anti-human IgG Fc antibody on ice for 30 minutes. […]

Experiment [3] has as its target T2, KIR2DL5A*005 allele expressed on 3T3 cells (human).
T2 construct: also called 2D5A*005
Kind of experiment: flow cytometry, PVR-Ig on 3T3 cells expressing KIR2DL5 alleles. As to the method: as §1, §2

Experiment [4] has as its target T3, KIR2DL5 wild type (KIR2DL5A*001) expressed on cells (human, UniProt Q8N109 22-375).
T3 construct: UniProtKB Q8N109 and NP_065396.1 are printed for this entry; In the SHP-1/SHP-2 co-immunoprecipitation the cells were treated with pervanadate and the receptor was tyrosine-phosphorylated; also called KIR2DL5/3T3; WT KIR2DL5
Put plainly: flow cytometry, fusion protein on KIR2DL5/3T3, anti-human IgG Fc detection. As to the method: PVR-Ig protein was preincubated with indicated His-tagged protein and then stained KIR2DL5/3T3 cells. […] (D) Flow cytometric analysis of PVR-Ig (open) or control hIg (shaded) binding on 3T3 cells expressing WT, DO-deleted, or D2-deleted KIR2DL5. Parental 3T3 cells were used as a negative control. (E) Flow cytometric analysis of PVR-Ig or control hIg (shaded) binding on 3T3 cells expressing different KIR2DL5 alleles. In A-E, data are representative of 2 independent experiments.
as §3

T1 sequence (Q99706 22-377): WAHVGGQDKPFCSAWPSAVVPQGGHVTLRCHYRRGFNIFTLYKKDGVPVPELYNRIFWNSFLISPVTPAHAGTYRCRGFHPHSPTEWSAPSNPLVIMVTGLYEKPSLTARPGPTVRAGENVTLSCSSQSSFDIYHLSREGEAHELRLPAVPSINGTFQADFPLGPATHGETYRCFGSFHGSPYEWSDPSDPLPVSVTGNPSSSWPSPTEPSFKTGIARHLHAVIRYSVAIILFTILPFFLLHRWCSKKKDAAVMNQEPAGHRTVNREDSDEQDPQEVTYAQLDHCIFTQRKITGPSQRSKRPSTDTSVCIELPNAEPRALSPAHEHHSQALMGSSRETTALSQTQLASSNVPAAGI

As for B1, the binding result in experiment [1] is listed as “no binding”. For B2, the binding result in experiment [2] is “no binding (tested: 1.28 µM)”; in experiment [3] it was “no binding”. On to B3, for which the binding result in experiment [4] is given as “no binding”.

Source of the values: patent US20250019435A1 (ALBERT EINSTEIN COLLEGE OF MEDICINE, published 2025).
